In paper doi:10.1101/2020.06.02.129890 (bioRxiv, 2020):

Target: Rhodopsin (endogenous in mouse retina) (mouse (endogenous in retina), UniProt P15409 1-348)
Assay: far-Western, overlay or dot blot

binding result: binds
B1: GFP-MYO1C-790-1028 (MYO1C tail domain, also known as the cargo domain) (domain or fragment, mouse, UniProt Q9WTI7-2 790-1028, looked up)
chain: PRNVLDTSWPTPPPALREASELLRELCMKNMVWKYCRSISPEWKQQLQQKAVASEIFKGKKDNYPQSVPRLFISTRLGTEEISPRVLQSLGSEPIQYAVPVVKYDRKGYKPRPRQLLLTPSAVVIVEDAKVKQRIDYANLTGISVSSLSDSLFVLHVQREDNKQKGDVVLQSDHVIETLTKTALSADRVNNININQGSITFAGGPGRDGIIDFTSGSELLITKAKNGHLAVVAPRLNSR
